Consider one substance from publication PMC5201024.

This experiment addresses MST3/4 (endogenous MST3 and MST4, m10/m11). Nature of the experiment: co-immunoprecipitation (anti-Myc IP, immunoblot quantification). The note with it: HeLa cells co-transfected with Myc-RHOA-Q63L and GFP-FAM65A full-length; n=3 independent experiments; read off a plot. On the technique in general: In western blotting, separated proteins are transferred to a membrane and probed.

With RHOA wild type (P61586) Q63L, the response (IP/Input ratio (arbitrary units)) worked out at 4.6.
